{"source": "paper PMC3359286", "origin": "cited, not measured here", "biological_target": "hemoglobin (Homo sapiens) (UniProt P69905)", "sequence (P69905 2-142, chain 1 of 2)": "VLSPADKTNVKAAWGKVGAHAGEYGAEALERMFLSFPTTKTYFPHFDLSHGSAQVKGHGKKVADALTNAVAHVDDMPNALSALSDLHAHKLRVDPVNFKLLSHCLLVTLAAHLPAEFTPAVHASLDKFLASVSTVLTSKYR", "sequence (P68871 2-147, chain 2 of 2, further chain)": "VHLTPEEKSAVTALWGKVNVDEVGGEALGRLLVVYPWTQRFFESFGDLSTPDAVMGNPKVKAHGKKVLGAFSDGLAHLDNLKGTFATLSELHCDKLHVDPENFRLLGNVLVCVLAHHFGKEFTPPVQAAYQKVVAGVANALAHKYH"}
{"substance": "IsdB (from UniProt A7X146)", "values": [{"measurement": "Kd", "value": 55, "unit": "nM"}]}
